Laboratory results from publication PMC2830281.

Legend:
Assay in all cases: latex bead solid phase immunoassay read by flow cytometry
[1] = target: mouse IgA (native, on latex beads) (mouse)
[2] = target: mouse IgG1 (native, on latex beads) (mouse)
[3] = target: mouse IgG2a (native, on latex beads) (mouse)
[4] = target: mouse IgG2b (native, on latex beads) (mouse)
[5] = target: mouse IgG3 (native, on latex beads) (mouse)
[6] = target: mouse IgM (native, on latex beads) (mouse)

Measured: fold lower mean fluorescence intensity than beads with catfish IgM

Sequence of mouse IgM (native, on latex beads) (mouse) (P01872 whole entry, chain 1 of 3, other chains not shown): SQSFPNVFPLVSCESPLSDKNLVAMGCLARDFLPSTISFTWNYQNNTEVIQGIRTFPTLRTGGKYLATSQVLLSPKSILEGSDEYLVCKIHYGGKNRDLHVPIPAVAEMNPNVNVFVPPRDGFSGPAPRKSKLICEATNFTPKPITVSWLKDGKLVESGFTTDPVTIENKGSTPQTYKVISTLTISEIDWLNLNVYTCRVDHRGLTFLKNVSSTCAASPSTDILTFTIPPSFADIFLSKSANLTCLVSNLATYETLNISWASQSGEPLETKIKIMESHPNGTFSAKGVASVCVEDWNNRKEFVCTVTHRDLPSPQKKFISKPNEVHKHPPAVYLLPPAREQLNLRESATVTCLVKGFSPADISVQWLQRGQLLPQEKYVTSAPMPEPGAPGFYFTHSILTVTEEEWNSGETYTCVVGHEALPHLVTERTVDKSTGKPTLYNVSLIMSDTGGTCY
Sequence of mouse IgM (native, on latex beads) (mouse) (P01592 22-159, chain 3 of 3, other chains not shown, further chain): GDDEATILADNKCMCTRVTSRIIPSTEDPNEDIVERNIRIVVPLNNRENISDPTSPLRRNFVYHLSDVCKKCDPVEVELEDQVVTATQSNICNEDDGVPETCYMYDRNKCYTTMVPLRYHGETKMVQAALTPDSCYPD
Sequence of mouse IgG2a (native, on latex beads) (mouse) (P01863 whole entry, chain 1 of 2, other chains not shown): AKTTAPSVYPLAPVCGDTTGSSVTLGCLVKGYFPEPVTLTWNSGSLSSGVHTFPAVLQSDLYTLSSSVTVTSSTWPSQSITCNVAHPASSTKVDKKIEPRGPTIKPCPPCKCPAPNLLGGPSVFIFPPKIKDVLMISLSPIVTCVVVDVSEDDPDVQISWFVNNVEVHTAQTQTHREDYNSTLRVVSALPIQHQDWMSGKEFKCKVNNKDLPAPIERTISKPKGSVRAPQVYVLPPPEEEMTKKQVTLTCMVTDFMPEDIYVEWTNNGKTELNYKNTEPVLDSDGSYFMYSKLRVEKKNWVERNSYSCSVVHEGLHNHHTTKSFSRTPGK

recombinant IpFcRI (D1-D2-D3), channel catfish soluble FcμR (receptor)
5 fold: all assays above
